The assay concerns the target T1, BCMA on multiple myeloma cell lines RPMI8226 (low BCMA) and U266 (high BCMA) (human, UniProt Q02223 1-184).
T1 construct: whole, on cells; endogenous expression; also called CD269; TNFRSF17
T1 sequence (looked up): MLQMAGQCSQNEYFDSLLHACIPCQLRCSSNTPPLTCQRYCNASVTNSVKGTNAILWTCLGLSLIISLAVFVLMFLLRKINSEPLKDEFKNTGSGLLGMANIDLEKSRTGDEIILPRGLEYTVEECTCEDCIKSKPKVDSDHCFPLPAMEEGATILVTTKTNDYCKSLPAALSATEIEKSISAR
Put plainly: flow cytometry on RPMI8226 cells (low BCMA), anti-his-FITC. In general terms: Flow cytometry measures light scatter and fluorescence of single cells or particles in a stream.

B1: NbBCMA-8 (VHH)
VHH: QVQLVESGGGLVQAGGSLRLSCAASTRTFSSYVMAWFRQVPGKEREFVASRACSGGTPYYADSVKGRFFISRDDAKNTVYLRMNSLKPEDTAVYYCAAASIGATQYDYWGQGTQVIVSS
notes: Expressed in E. coli from PET30a(+); the supernatant of sonicated bacteria was used in flow cytometry; not shown: His tag from the PET30a(+) vector (detected with anti-his-FITC)
Take B1: the binding result is “binds”.

B2: NbBCMA-5 (VHH)
VHH: QVQLVETGGGLVQAGGSLRLSCAASGTIFSVYNMGWFRQAPGKQRELVAAITKNGSTSYKDSVKGRFTISTDNAKNTVDLRMSSLKLGDTAVYFCAAWDWDKNQAYWGQGTQVTVSS
notes: as for B1
B2: the binding result is on record as “binds”.
